These results are taken from the supplement of paper PMC10567573.

Sequences and labels used below:
B1: DLC1 (parent)
chain: HVTHWMGQPFNSDDRNTACHHGLV
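Further: lentivirally expressed fusions sorted by FACS into six bins by GFP to DsRed ratio, PSI derived from sequencing read proportions per bin multiplied by bin number.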

The data set covers variants of B1. Description: protein stability index of a GFP-peptide fusion (GPS, HEK-293T) (PSI 1-6); higher = more stable. The settings on record: c terminus: a fixed tail appended.
In the case of HVTHWMGQPFNSDDRNTACHHELV, the protein stability index is 2.59. The same measure for HVTHWMGQPFNSDDRNTACHHDLV: 2.29; for HVTHWMGQPFNSDDRNTACHHKLV: 2; for HVTHWMGQPFNSDDRNTACHHRLV: 2.13. Regarding HVTHWMGQPFNSDDRNTACHHLLV, the protein stability index was 2.23. The same measure for HVTHWMGQPFNSDDRNTACHHCLV: 2.17. In the case of HVTHWMGQPFNSDDRNTACHHMLV it was 1.96; in that of HVTHWMGQPFNSDDRNTACHHILV, 1.34; in that of HVTHWMGQPFNSDDRNTACHHSLV, 1.93.

For the variant HVTHWMGQPFNSDDRNTACHHTLV, the protein stability index worked out at 2.1. For the variant HVTHWMGQPFNSDDRNTACHHFLV, the protein stability index was found to be 1.57. The same measure for HVTHWMGQPFNSDDRNTACHHHLV: 1.99. In the case of HVTHWMGQPFNSDDRNTACHHPLV it was 2.05. As to HVTHWMGQPFNSDDRNTACHHALV, the protein stability index turned out to be 2.49. In the case of HVTHWMGQPFNSDDRNTACHHYLV it was 1.6; in that of HVTHWMGQPFNSDDRNTACHHVLV, 1.89; in that of HVTHWMGQPFNSDDRNTACHHNLV, 1.99.

HVTHWMGQPFNSDDRNTACHHWLV: the protein stability index was determined as 2.38.

With HVTHWMGQPFNSDDRNTACVHGLV, the protein stability index came to 2.34.

On to HVTHWMGQPFNSDDRNTACKHGLV, for which the protein stability index is 2.41. In the case of HVTHWMGQPFNSDDRNTACIHGLV it was 2.13. In the case of HVTHWMGQPFNSDDRNTACQHGLV it was 2.46. As to HVTHWMGQPFNSDDRNTACTHGLV, the protein stability index was found to be 2.25. In the case of HVTHWMGQPFNSDDRNTACSHGLV it was 2.25. In the case of HVTHWMGQPFNSDDRNTACNHGLV it was 2.2. The same measure for HVTHWMGQPFNSDDRNTACEHGLV: 2.44; for HVTHWMGQPFNSDDRNTACLHGLV: 1.6. With HVTHWMGQPFNSDDRNTACCHGLV, the protein stability index worked out at 2.25.

Regarding HVTHWMGQPFNSDDRNTACDHGLV, the protein stability index came to 2.36. In the case of HVTHWMGQPFNSDDRNTACMHGLV it was 1.79. As to HVTHWMGQPFNSDDRNTACGHGLV, the protein stability index came out at 2.16. The same measure for HVTHWMGQPFNSDDRNTACWHGLV: 2.46; for HVTHWMGQPFNSDDRNTACRHGLV: 2.25; for HVTHWMGQPFNSDDRNTACYHGLV: 2.16. In the case of HVTHWMGQPFNSDDRNTACFHGLV it was 2.3. The same measure for HVTHWMGQPFNSDDRNTACAHGLV: 2.37; for HVTHWMGQPFNSDDRNTACPHGLV: 2.5; for HVTHWMGQPFNSDDRNTACHHGLL: 2.35. As to HVTHWMGQPFNSDDRNTACHHGLR, the protein stability index is 2.22. The same measure for HVTHWMGQPFNSDDRNTACHHGLA: 2.31; for HVTHWMGQPFNSDDRNTACHHGLM: 2.04; for HVTHWMGQPFNSDDRNTACHHGLY: 1.69.

Take HVTHWMGQPFNSDDRNTACHHGLI: the protein stability index was found to be 2.08. In the case of HVTHWMGQPFNSDDRNTACHHGLQ it was 2.19; in that of HVTHWMGQPFNSDDRNTACHHGLN, 2.05; in that of HVTHWMGQPFNSDDRNTACHHGLK, 2.6. In the case of HVTHWMGQPFNSDDRNTACHHGLD it was 2.66. The same measure for HVTHWMGQPFNSDDRNTACHHGLP: 2.22. Regarding HVTHWMGQPFNSDDRNTACHHGLT, the protein stability index was 2.39. Turning to HVTHWMGQPFNSDDRNTACHHGLF, the protein stability index is 1.45.

With HVTHWMGQPFNSDDRNTACHHGLS, the protein stability index stood at 2.35.

For the variant HVTHWMGQPFNSDDRNTACHHGLW, the protein stability index stood at 2.09. In the case of HVTHWMGQPFNSDDRNTACHHGLH it was 2.28; in that of HVTHWMGQPFNSDDRNTACHHGLC, 2.16.

As for HVTHWMGQPFNSDDRNTACHHGLE, the protein stability index was found to be 2.5. On to HVTHWMGQPFNSDDRNTACHHGLG, for which the protein stability index turned out to be 1.92. As to HVTHWMGQPFNSDDRNTACHHGTV, the protein stability index was found to be 2.26.

As for HVTHWMGQPFNSDDRNTACHHGFV, the protein stability index was found to be 2.02. Take HVTHWMGQPFNSDDRNTACHHGAV: the protein stability index came to 2.51. With HVTHWMGQPFNSDDRNTACHHGRV, the protein stability index was found to be 2.47. In the case of HVTHWMGQPFNSDDRNTACHHGMV it was 2.13. Take HVTHWMGQPFNSDDRNTACHHGVV: the protein stability index amounted to 2.39. In the case of HVTHWMGQPFNSDDRNTACHHGIV it was 1.92; in that of HVTHWMGQPFNSDDRNTACHHGEV, 2.75. The same measure for HVTHWMGQPFNSDDRNTACHHGQV: 2.38; for HVTHWMGQPFNSDDRNTACHHGNV: 2.37. The same measure for HVTHWMGQPFNSDDRNTACHHGWV: 1.86; for HVTHWMGQPFNSDDRNTACHHGCV: 1.99; for HVTHWMGQPFNSDDRNTACHHGPV: 2.17. For the variant HVTHWMGQPFNSDDRNTACHHGHV, the protein stability index was 2.46.

Take HVTHWMGQPFNSDDRNTACHHGSV: the protein stability index is 2.24.

As to HVTHWMGQPFNSDDRNTACHHGGV, the protein stability index turned out to be 2.49.

Consider HVTHWMGQPFNSDDRNTACHHGKV, for which the protein stability index came to 2.27. Consider HVTHWMGQPFNSDDRNTACHHGYV, for which the protein stability index was determined as 2.07. In the case of HVTHWMGQPFNSDDRNTACHHGDV it was 2.84; in that of HVTHWMGQPFNSDDRNTACHRGLV, 2.26.

For HVTHWMGQPFNSDDRNTACHFGLV, the protein stability index is 1.64. The same measure for HVTHWMGQPFNSDDRNTACHSGLV: 2.23; for HVTHWMGQPFNSDDRNTACHGGLV: 2.37. The same measure for HVTHWMGQPFNSDDRNTACHVGLV: 1.9; for HVTHWMGQPFNSDDRNTACHKGLV: 2.7. The same measure for HVTHWMGQPFNSDDRNTACHAGLV: 2.38; for HVTHWMGQPFNSDDRNTACHMGLV: 2.21; for HVTHWMGQPFNSDDRNTACHWGLV: 1.69.

Consider HVTHWMGQPFNSDDRNTACHCGLV, for which the protein stability index stood at 2.69. The same measure for HVTHWMGQPFNSDDRNTACHTGLV: 2.02. Turning to HVTHWMGQPFNSDDRNTACHDGLV, the protein stability index was 2.58.

HVTHWMGQPFNSDDRNTACHEGLV: the protein stability index is 2.51. In the case of HVTHWMGQPFNSDDRNTACHNGLV it was 2.66; in that of HVTHWMGQPFNSDDRNTACHYGLV, 1.85. The same measure for HVTHWMGQPFNSDDRNTACHQGLV: 2.44; for HVTHWMGQPFNSDDRNTACHPGLV: 1.95; for HVTHWMGQPFNSDDRNTACHIGLV: 1.85. For the variant HVTHWMGQPFNSDDRNTACHLGLV, the protein stability index came to 1.93.
